Assay results: the DeepSol protein solubility set

Test: soluble on expression in E. coli; label from the status in PepcDB or PDB records

| Sequence | soluble on expression in E. coli |
| --- | --- |
| MGSDKIHHHHHHMSGPQKANDLLGQIPKTKGLPPVHLWNPDFCGDIDMRIARDGTWYYLGTPIGRKPMVKLFSTIIRRDGDDYFLITPVEKVGIKVDDAPFVAIAVEMEGEGEAQVLRFTTNVDETTEAGAEHLIRVEIDPVTQEPAPYVHVRTNLEALIHRNVFYQLVELAVSREIDGQRWLGVWSGGEFFRIGLEP | not soluble |
| MSELVVIREMQEKDILALDTQFVQQGWPSRQEILMNYLEEQLVKQRTVFVAEKKATLLGYVTLLPLAKEGPFKNLYPEIADFNVFLPFQKQGVGRLLLNRAENVAKSYADTVSLGVGLHPGYGAAQRLYIKQGYVPDGSGVWFQNKQLKPNERCVNDDELVLYLSKKL | not soluble |
| FDLNDFLEQKVLVRMEAIINSMTMKERAKPEIIKGSRKRRIAAGSGMQVQDVNRLLKQFDDMQRMMKKM | soluble |
| MSSTIPALPGPEPGPGPGPAGPVSLTERRKAETRMEIARAAARLFVGQGLRATRAEDIARAAGVAPRTFYRYFATKEEAVAPLYALGAERWVRAVREAPAELSPPEALERAVRHTLTPGAGVSAPSWEWARTLIRLAESSPALRKVWAEVCHSTERGLVQALAARMSGGDDNVAVRLAASPRLHFAAAVAGASVRVAAEHWASSSPQGARSPLEQALLNLEVLRGFAWEAGPAEEG | not soluble |
| MAHHHHHHMGLEIFEIDTSTPHTGVVIDGTTACREANSGWVTLRAKTPLSAGQCQWAMKVIDQGEGNDGSGLMMGLLPRLNSQQEVAMGSKYISELGGWCLSRAGDSYGCWKCDKMPFSTGCVVEFDWDAASRTLYIVSGKRKASGHIPNVSEADVVYPAFSMFYLNQKLAFV | soluble |
| MGSDKIHHHHHHMLDKKTDILLAARKLFSEKDFTSVSMQAIAEECKMSKASIYKLFQSKEDLLLELLSFNQKQMVAAASRLQENTALTPEERLTQKVKMELEGFRRNQQFFNMLTYGNPRLHNDRVKQHIHQTRSTIICWHRDSLIQAYGETILPFVWDLVIILHGMMREFLMLIKIEEKPLELDPIAEFIISTLNQIIKNRETRQSLLPPEAIELYIHSASSYKPKDKSVLLSESLKELHKGISSLSAADYDVDELTSAAAMLEEEAKKEEPRAFLLKSLIGYLEQTGVLTQPVSMLKTLLIT | not soluble |
| MSSLTKQFVITQSVKNVSSIADGGEHVTPSEIHYGTEWYMRIKRDNGFMSFGLYCPMTGKTTNWSIVADIRVELMPLTGMWKSVECECKIAKSPSLISEVLRSTIMPWGRMMTNYVVDDALMIEVFVTIKSMTGFERPYNLRSFDESMEEFSDVVLLVGEKKFYVLRKYLAAQSKYFKALLLGSFEEGKSSEVTLTSIDPNDFQFFLEVLYGDSAINDLTVEGILHIADMYDTPMVVRKCEEFLIKGTKLPAKKKLQMAFRYKMENFMVLFFGNIQRKVFNFFRETTTLN | not soluble |
| MSLSFFFQSATVSDGELTGADLKDCISNNSLSSNASLPSVQSCRRLRERRVASWAVSFERLLQDPVGVRYFSDFLRKEFSEENILFWQACECFSHVPAHDKKELSYRAREIFSKFLCSKATTPVNIDSQAQLADDILNAPHPDMFKEQQLQIFNLMKFDSYTRFLKSQLYQECVLAEVEGRTLPDSQQVPSSPASKHSISSDHSNVSTPKKLSGKSKSGRSLNEDVGEEDSEKKRRGAFFSWSRSRSTGRSQKKKDHGDHAHDAPHANGGLCRRESQGSVSSAGSLDLSEACRTSALEKDKAAKHCCVHLPDGTSCVVAVKSGFSIKEILSGLCERHGINGAAVDLFLVGGDKPLVLHQDSSILATRDLRLEKRTLFRLDLVPINRSVGLKAKPTKPVTEVLRPVVAKYGLDLGSLLVRLSGEKEPLDLGAPISSLDGQRVILEERDPSRGKVSTDKQKGAPVKQNSAVNSSPRNHLAMGEERTLGKSNSIKIRGENGKSARDPRLSKREESIAKIGKKEYQKINLDEAEEFFELISKAQSNRADDQRGLLRKEDLVLPEFLRLPAGSSELALSSPPPVKGYSKRAVTGHGQEGAAQTEESYSDSPATSPASAQSPCSAYSPGSAHSPGSAHSTPGPPGTTQPGEKPTKPSCVSMVQEGTTQAWRRLSPGMEAGGIQTVEDEQVADLTLMGEGDISSPNSTLLPPPPTPQDTPGPPRPGTSRF | soluble |
| MLTTDSLKRLWIFSFDRTLTAAGACYSKARLHRVTRQFLEELAALPGHRVAVLSSRPLDDLVSRVPIEGIYLGGSCGTEWHIPGGESMTLSGKPKDMLMETRDALLPTLREVADLPGVELEDRRWSAALHTQEANTKARQTLFARLAAVLKGWRVALYRNTTMVEIQFLPEITMAFGAQALCRFLGYRGDVVCAGSDENDATALRWALNQGGTALSLGRDPLVPGARPVVDVRSLARHVRDLAGIDEHHRTRMAGRRLCNAALEHHHHHH | not soluble |
| MQTVGVHSIVQQLHRNSIQFTDGYEVKEDIGVGSYSVCKRCIHKATNMEFAVKIIDKSKRDPTEEIEILLRYGQHPNIITLKDVYDDGKYVYVVTELMKGGELLDKILRQKFFSEREASAVLFTITKTVEYLHAQGVVHRDLKPSNILYVDESGNPESIRICDFGFAKQLRAENGLLMTPCYTANFVAPEVLERQGYDAACDIWSLGVLLYTMLTGYTPFANGPDDTPEEILARIGSGKFSLSGGYWNSVSDTAKDLVSKMLHVDPHQRLTAALVLRHPWIVHWDQLPQYQLNRQDAPHLVKGAMAATYSALNRNQSPVLEPVGRSTLAQRRGIKKITSTAL | soluble |
| MSLTYPYRTTMALNTYQYRETTMIDPKKIEQIARQVHESMPKGIREFGEDVEKKIRQTLQAQLTRLDLVSREEFDVQTQVLLRTREKLALLEQRISELENRSTEIKKQPDPETLPPTLEGGSHHHHHH | soluble |
| MGQFILEIYKIRIVSQTHLFSKLIFHSFLSFLFNDFSHLSASLPPLIDLSTKKKLLARASEGATSSSSPLPPASTATLSAFRPPARMIPPPVVLPQQYAPLPGFTPLLPAQAMMANFPPNALYQLGTPPFENGNNRIRFKDAAMVVLSRLSFNQRRLDNAHQ | not soluble |
| MSLYTFKELKRATKQDTVSLPKLKVALLGDTATQLLATAIKGEGILRNYNIELWEAEYNQVERQIMDPTSDYYQFEPDYTIIFHSTHKLLEKHSLVNSDLQNKLADDRLDFVRLLCEQGIGRVIYYNYPEIEDTIWGSYATKVQSSFTYQLTKLNYELMNISQAYPNFFICNLAGISAKYGRNFMFDSSVYVNTEIILSLDALPIISSRTIDIIAAIQGKFKKCLILDLDNTIWGGVVGDDGWENIQVGHGLGIGKAFTEFQEWVKKLKNRGIIIAVCSKNNEGKAKEPFERNPEMVLKLDDIAVFVANWENKADNIRTIQRTLNIGFDSMVFLDDNPFERNMVREHVPGVTVPELPEDPGDYLEYLYTLNLFETASFSEDDKDRTKQYQIEAKRVSLQQSFTNEAEFLKSLDMVSEVKGFDKFNTPRVAQLSQRSNQFNLRTVRYTEAEIAAIESDLHYATFSFTLADRFGDNGLICVIILEKQDTETLFINTWFMSCRVLKRGMENFTLNTLVDYARSNGFKRFIGEYLPSAKNQMVEEHYPHLGFSKMEGGDNAARYVLDVEEGHHHHHH | not soluble |
| MHYSQMRWMFFCLTALLHGSFIVNAAKILVYCPSISKSHVLLCSKYADLLHNAGHDTVLFIPSYSKLLDNYDGAKHAKVWRLHNVTEAYDTKLGTLANVMENSHIGFIDRLTFDADFWIDMCADLLGKLPEMQHIIDYKFDLVIYNEIDPCTPAIVRLFNIPKTVLLSSEAIMDKVAWNLGKPMTTFAES | not soluble |
| MAKGIPYGISDFSRLIDQNYYYVDKTHFIPQIEEIANYLFLIRPRRFGKSVFLTMMRAYYDISQKDRFEERFGNLWIGKHPTPLQGIYQVLYFDFSKANLGRGSLEDNFNNYCCIQLNDFFSTYREYYQGEKELEQIIASTEAATKLHWLEATARRLGHLLYLIIDEYDNFTNVILSEQGKNLFRDLTHASGFYREYFKQFKGMFERIFLMGVSPVTLDDLSSGYNIDWNISVDPHFNMMMGFSETDVREMFGYYQKEGMLKGDIDAMINEMKPWYDNYCFAEASLKTDPRMFNCDMTLYYLRHRVNFDASPKELIDKNIRTDYSKLKMLARLDHENVSGEDRMSTIEEIAAKGEILVNLHTSFPAEKIVETDNFRSLLYYYGLLTMCGTRGDRIVMCIPNNCVREQYFGFLREYYQQRKEVFLPHLKDLIDDMAFDGQWRPLFEYIALAYKENSAIRDAIEGEHNLQGFFKAYLALASYYLVQPELEMNYGYCDFFLLPDKSRYPDTAHSYILELKYLPRTATDKELEEQAEEGRGQLKQYSRDKKVTTISEGTALHCILLQFKGWELIKCEEVSPKC | not soluble |
| MAHHHHHHMGKHIRILKNQYLQFMSKRCIQSKAAFNICGKINVENPIVELDGDEMTRIIWKDIKEKLILPYVNLKIKYFDLSIENRDKTNDQVTIEAAEEIKKTSVGIKCATITPDAARVKEFNLKEMWKSPNGTIRNILDGTVFRTPILIKNIPKLVPNWKKPIVIGRHAYADQYKQKSLKIEKSGKFEIVFTPDDNSQVLRETVFHFKSPGVCLGMYNTEESIRNFALSCFQYALDLKMPVYMSTKSTILKIYDGLFKDIFDEIYEKQFKKSFEQHNLWYEHKLIDDMVAQVLKSEGGFLWACKNYDGDIQSDAVAQGYGSLGLMSSVLLCPDGVTCVSEAAHGTVTRHYRAYQKGEKTSTNPIASIFAWTKGLEHRAKLDKNDNLKQFCYALEKACIETVEDGLMSKDLAGCIKGIKNVTEKDYIFTQDLINAINEKLKLKILQNQSKNDPQATSYKLKNDNWNFYAPQEHST | not soluble |
| MAGSVGEETEPEWIKRVKLEGAVPCLKPDDNCKNGWTTPSPDTFMVRGPKYFSDKVKIPAGDFLLKPLGFDWIKGPKKLSEILSYPSSRIRKVIDEEFQKDGTKPFVWAFNLQLPHKDNYSAVAYFVTTEPILEGSLMDRFLKGDDGFKKSRLKLIANIVKGPWIVRKAVGEQAICVIGRALSCKYVSGENFVEIDVDIGSSMVASAIVHLAFGYVTTLTVDLAFLIESQTEAELPEKLLGAVRFSELQTESATSIELSSSTSNDQWDQTTSERSSWWKSIGNGFSNLLNQDTANMNNTSHGDIQKDEHVQKQ | soluble |
| MMKKEKELLVAIASQKGGVGKSVFTVLLASVLHYRKDVRVAVVDCDSPQHSIALMRERDMENVMKNDDLKVNLYRQYERIRKPAYPVIKSDPEKGVEDLRRYMDEKGETFDIVLFDLPGTLRSEGVVHTVAAMDYIFVPLKADNIVMQSSLQFTKVLEEELIAKGNCNLKGIRLFWNMVDRRGRKNLYDAWNRVIHRMGLRLLSSHIPNTLRYNKEADPVCKGVFRSTLFPPDPRQEKDSGLPELVEAAFFGRDPGITLL | not soluble |
| GATVHELSRDKKKDTVPWFPRTIQELDRFANQILSYGAELDADHPGFKDPVYRARRKQFADIAYNYRHGQPIPRVEYMEEEKKTWGTVFKTLKSLYKTHACYEYNHIFPLLEKYCGFHEDNIPQLEDVSQFLQTCTGFRLRPVAGLLSSRDFLGGLAFRVFHCTQYIRHGSKPMYTPEPDICHELLGHVPLFSDRSFAQFSQEIGLASLGAPDEYIEKLATIYWFTVEFGLCKQGDSIKAYGAGLLSSFGELQYCLSEKPKLLPLELEKTAIQNYTVTEFQPLYYVAESFNDAKEKVRNFAATIPRPFSVRYDPYTQRIEVLDNT | soluble |
| MTEKKKRGLLSWLGFGDEEKSQTTATDTQTQDEPQSQADVEAVAIQTETALTETETETETETETETETETATVEPARIVEQEKPTESFFARLKRSLSRTKANIGAGFFGLFKGKKIDDDLFEELEEQLLIADVGMDTTSKIIANLTARASRQQLRDGEALYGLLKEEMAEILSQVEQPLVIDTEKKPYVILMVGVNGVGKTTTIGKLAKQFQAQGKKVMLAAGDTFRAAAVEQLQVWGERNQVPVIAQHTGADSASVIYDAIEAAKARGIDVVIADTAGRLQNKSNLMEELRKIVRVMKKIDDSAPHEIMLTLDAGTGQNAISQAKLFSDVAPITGITLTKLDGTAKGGVIFAIADQFQIPIRYIGVGEKIDDLRPFATQEFIDALFSREE | not soluble |
